# Data taken from patent US20230303994.
Protein,Activity PPI cleavage (pre-pro-human insulin),Selectivity (pre-pro-human insulin) [%],Purity Insulin Glargine (pre-pro-insulin glargine) [area %],Yield (pre-pro-insulin glargine) [%],desArg (pre-pro-insulin glargine) [area %],desThr (pre-pro-insulin glargine) [area %]
trypsin variant SEQ ID NO: 89 (protein) IVGGYTCAANSIPYQVSLNSGSHRCGGSLINSQWVVSAAHCYKPRIQVRLGEHNIHVLEGNEQFINAAKIITHPNFNPNTLDNDIMLIKLSSPATLNSHVATVSLPTSCAAAGTECLISGWGNTASSGSSMPSLLQCLKAPVLSDSSCKSSYPGQITGNMICVGFLEGGKDACQGDSGGPVVCNGQLQGIVSSGYGCAQKNKPGVYTKVCNYVNWIQQTIAAN,yes,>90,88.1,> 90,0.5,1.2
trypsin variant SEQ ID NO: 96 (protein) IVGGYTCAANSIPYQVSLNSGSHRCGGSLINSQWVVSAAHCYKPRIQVRLGEHNIDVLEGNEQFINAAKIITHPNFNPNTLDNDIMLIKLSSPATLNSHVATVSLPRSCAAAGTECLISGWGNTSSSGSSMPSLLQCLKAPVLSDSSCKSSYPGQITGNMICVGFLEGGADACQGDSGGPVVCNGQLQGIVSSGYGCAQKNKPGVYTKVCNYVNWIQQTIAAN,yes,>90,78.7,> 80,0.7,0.3
trypsin variant SEQ ID NO: 91 (protein) IVGGYTCAANSIPYQVSLNSGSHRCGGSLINSQWVVSAAHCYKPRIQVRLGEHNIHVLEGNEQFINAAKIITHPNFNPNTLDNDIMLIKLSSPATLNSAVATVSLPTSCAAAGTECLISGWGNTSSSGSSMPSLLQCLKAPVLSDSSCKSSYPGQITGNMICVGFLEGGKDACQGDSGGPVVCNGQLQGIVSSGYGCAQKNKPGVYTKVCNYVNWIQQTIAAN,yes,>90,86.8,> 90,1,0.3
trypsin variant SEQ ID NO: 92 (protein) IVGGYTCAANSIPYQVSLNSGSHRCGGSLINSQWVVSAAHCYKPRIQVRLGEHNIHVLEGNEQFINAAKIITHPNFNPNTLDNDIMLIKLSSPATLNSAVATVSLPTSCAAAGTECLISGWGNTCSSGSSMPSLLQCLKAPVLSDSSCKSSYPGQITGNMICVGFLEGGKDACQGDSGGPVVCNGQLQGIVSSGYGCAQKNKPGVYTKVCNYVNWIQQTIAAN,yes,>90,88.1,> 90,0.9,0.6
trypsin variant SEQ ID NO: 95 (protein) IVGGYTCAANSIPYQVSLNSGSHRCGGSLINSQWVVSAAHCYKPRIQVRLGEHNIHVLEGNEQFINAAKIITHPNFNPNTLDNDIMLIKLSSPATLNSHVATVSLPRSCAAAGTECLISGWGNTSSSGSSMPSLLQCLKAPVLSDSSCKSSYPGQITGNMICVGFLEGGADACQGDSGGPVVCNGQLQGIVSSGYGCAQKNKPGVYTKVCNYVNWIQQTIAAN,yes,>90,90,> 90,1,0.6
trypsin variant SEQ ID NO: 97 (protein) IVGGYTCAANSIPYQVSLNSGSHRCGGSLINSQWVVSAAHCYKPRIQVRLGEHNIHVLEGNEQFINAAKIITHPNFNPNTLDNDIMLIKLSSPATLNSAVATVSLPTSCAAAGTECLISGWGNTASSGSSMPSLLQCLKAPVLSDSSCKSSYPGQITGNMICVGFLEGGADACQGDSGGPVVCNGQLQGIVSSGYGCAQKNKPGVYTKVCNYVNWIQQTIAAN,yes,>90,89.4,> 90,< 0.5,1.2
trypsin variant SEQ ID NO: 93 (protein) IVGGYTCAANSIPYQVSLNSGSHRCGGSLINSQWVVSAAHCYKSRIQVRLGEHNIDVLEGNEQFINAAKIITHPNFNPNTLDNDIMLIKLSSPATLNSNVATVSLPTSCAAAGTECLISGWGNTCSSGSSMPSLLQCLKAPVLSDSSCKSSYPGQITGNMICVGFLEGGADACQGDSGGPVVCNGQLQGIVSSGYGCAQKNKPGVYTKVCNYVNWIQQTIAAN,yes,>90,71.3,> 75,0.7,0.3
trypsin variant SEQ ID NO: 99 (protein) IVGGYTCAANSIPYQVSLNSGSHRCGGSLINSQWVVSAAHCYKSRIQVRLGEHNIHVLEGNEQFINAAKIITHPNFNPNTLDNDIMLIKLSSPATLNSNVATVSLPTSCAAAGTECLISGWGNTSSSGSSYPSLLQCLKAPVLSDSSCKSSYPGQITGNMICVGFLEGGADACQGDSGGPVVCNGQLQGIVSSGYGCAQKNKPGVYTKVCNYVNWIQQTIAAN,yes,>80,89.2,> 90,0.9,1
trypsin variant SEQ ID NO: 11 (protein) IVGGYTCAANSIPYQVSLNSGSHRCGGSLINSQWVVSAAHCYKSRIQVRLGEHNIDVLEGNEQFINAAKIITHPNFNGNTLDNDIMLIKLSSPATLNSNVATVSLPRSCAAAGTECLISGWGNTKSSGSSYPSLLQCLKAPVLSDSSCKSSYPGQITGNMICVGFLEGGKDACQGDSGGPVVCNGQLQGIVSSGYGCAQKNKPGVYTKVCNYVNWIQQTIAAN,yes,>90,84.1,> 90,< 0.5,2.2
trypsin variant SEQ ID NO: 90 (protein) IVGGYTCAANSIPYQVSLNSGSHRCGGSLINSQWVVSAAHCYKPRIQVRLGEHNIHVLEGNEQFINAAKIITHPNFNPNTLDNDIMLIKLSSPATLNSHVATVSLPTSCAAAGTECLISGWGNTASSGSSMPSLLQCLKAPVLSDSSCKSSYPGQITGNMICVGFLEGGKDSCQGDSGGPVVCNGQLQGIVSSGYGCAQKNKPGVYTKVCNYVNWIQQTIAAN,yes,>90,89.5,> 90,0.9,0.2
trypsin variant SEQ ID NO: 98 (protein) IVGGYTCAANSIPYQVSLNSGSHRCGGSLINSQWVVSAAHCYKPRIQVRLGEHNIHVLEGNEQFINAAKIITHPNFNPNTLDNDIMLIKLSSPATLNSAVATVSLPTSCAAAGTECLISGWGNTASSGSSMPSLLQCLKAPVLSDSSCKSSYPGQITGNMICVGFLEGGADSCQGDSGGPVVCNGQLQGIVSSGYGCAQKNKPGVYTKVCNYVNWIQQTIAAN,yes,>90,89.4,> 90,0.9,2.7
trypsin variant SEQ ID NO: 94 (protein) IVGGYTCAANSIPYQVSLNSGSHRCGGSLINSQWVVSAAHCYKPRIQVRLGEHNIHVLEGNEQFINAAKIITHPNFNGNTLDNDIMLIKLSSPATLNSNVATVSLPRSCAAAGTECLISGWGNTCSSGSSMPSLLQCLKAPVLSDSSCKSSYPGQITGNMICVGFLEGGADACQGDSGGPVVCNGQLQGIVSSGYGCAQKNKPGVYTKVCNYVNWIQQTIAAN,yes,>90,85.2,> 90,0.8,0.3
